We go through four sequences from patent US10155792B2, “Albumin binding polypeptide” (priority 2012, dated 2018).

Where two headings read alike, the source gives them in different places. Where no end group is shown, it is not given here.

Series [1] addresses T1, clostripain (Hathewaya histolytica, UniProt P09870).
T1 construct: is a two-chain proteinase that can be isolated from Clostridium histolyticum; purchased Worthington LS001641
Description: Clostripain cleavage, LC/MS analysis. Format: in vitro ADME, Clostridium histolyticum. As for the experimental part: (§1) Enzymatic digestion of PEP07843 and the three new variants was performed using clostripain from Worthington (No. LS001641) in 25 mM NaPi buffer pH 7.6, 150 mM NaCl, 1 mM CaAc, 2.5 mM DTT. Clostripain was dissolved freshly before initiation of the experiment.
(§2) In the first experiment, 0.2 U clostripain/mg ABD variant was incubated for up to 20 h at 25° C., but only a low level of cleavage was detected by SDS-PAGE and LC/MS analysis.
(§3) In the following experiment, the clostripain amount was increased to 5 U/mg ABD variant, and the samples were incubated for 0, 1, 2, 4, 6, 8 and 22 h at 25° C. in a thermomixer with mild shaking at 600 rpm.
(§4) Reactions were stopped by addition of 4×SDS sample buffer followed by incubation for 15 min at 70° C. (for SDS PAGE analysis) or by addition of trifluoroacetic acid (TFA) to a final concentration of 0.3%, which lowers the pH to approximately 2, and freezing at −80° C. (for LC/MS analysis).
(§5) LC/MS analyses were performed using an Agilent 1100 LC/MSD system, equipped with API-ESI and a single quadruple mass analyzer. 10 μl of each cleavage mixture was injected on a Zorbax 300SB-C8 Narrow-Bore column (2.1×150 mm, 3.5 μm, Agilent Technologies) at a flow-rate of 0.5 ml/min. Elution was performed using a linear gradient of 10-70% solution B for 15 min at 0.5 ml/min. The separation was performed at 30° C. The ion signal and the absorbance at 280 and 220 nm were monitored.
(§6) FIGS. 4 and 5 show the LC/MS analysis of ABD variant samples incubated for up to 20 h with 0.2 U and up to 22 h with 5 U respectively of clostripain per mg ABD variant. The main peak was integrated, and the area transformed to % of remaining intact ABD variant at t=0.
(§7) The main peak was integrated and the area transformed to % of remaining intact ABD at t=0. The LC/MS analysis described above was used for analysis.

Series [2] deals with T2, clostripain.
T2 construct: is a two-chain proteinase that can be isolated from Clostridium histolyticum; purchased Worthington LS001641
Description: Clostripain cleavage, LC/MS analysis. The settings on record: Clostridium histolyticum, clostripain (isolated protease), read-out: remaining % ABD variant; for remaining at 0.25 h: 15 min; for remaining at 0.5 h: 30 min; for remaining at 20 h: 1200 min. Format: in vitro ADME, Clostridium histolyticum. As for the experimental part:
as §1, §2, §3, §4, §5, §6, §7

For series [3], the target named is T3, cynomolgus serum albumin (CSA) (Macaca fascicularis, UniProt A2V9Z4).
T3 construct: CSA (purified in-house from cynomolgus serum); from tissue; host or cells: cynomolgus serum
Kind of series: Biacore analysis of binding to CSA. The conditions noted are these: CSA immobilized, Biacore2000; relative KD only. For orientation: In SPR one partner is held on a chip, and binding of the other changes the refractive index at the surface.

The target of series [4] is human serum albumin (HSA) (Homo sapiens, UniProt P02768). Kind of series: biochemical.
Description: Biosensor analysis on a Biacore2000 instrument (GE Healthcare) was performed with HSA (Albucult®, Novozymes), CSA (purified in-house from cynomolgus serum), RSA (Sigma-Aldrich, Cat. No. A6272) and MSA (Sigma-Aldrich, Cat. No. A3559) immobilized by amine coupling onto the carboxylated dextran layer of the surfaces of CM-5 chips (research grade; GE Healthcare) according to the manufacturer's recommendations.
ABD variants were used as analytes and were injected in duplicates over the chip at three analyte concentrations (2.5, 10 and 40 nM). The association phase was 5 min followed by a long dissociation phase (60 min) to account at least partially for the slow off-rate of the ABD variants. […] Therefore, all KD's are given as relative KD values only.
The results were analyzed with BiaEvaluation software (GE Healthcare). Curves of the blank surface and buffer injection were subtracted from the curves of the ligand surfaces.
The Biacore 2000 instrument has a technical limitation which hinders measurements of very high affinity. […] After subtraction of reference surface and buffer injection, curves were fitted to a 1:1 (Langmuir) binding model using BIAevaluation software with correction for mass transfer and with RUmax set as a local parameter.
Series [5] has as its target T1, clostripain. Description: Clostripain cleavage, SDS-PAGE analysis. Format: in vitro ADME, Clostridium histolyticum. The conditions noted are these: 5 U clostripain/mg. As for the experimental part: as §1, §3, §4
(§8) Controls were reactions without clostripain and omitting DTT which […] clostripain activity.
(§9) Analysis of samples incubated with clostripain for up to 22 h was performed by SDS-PAGE using NuPAGE 4-12% gels from Invitrogen (see FIG. 3). In FIG. 3, lane S indicates sharp molecular weight marker standard (molecular weights 3.5, 10, 15, 20, 30, 40, 50, 60, 80, 110 and 160 kDa), lane B indicates a blank sample with clostripain but no ABD variant, and lanes 0-22 indicate ABD variant samples taken at the indicated incubation times in hours.

Series [6] has as its system T2, clostripain. Description: Clostripain cleavage, SDS-PAGE analysis. Format: in vitro ADME, Clostridium histolyticum. The conditions noted are these: Clostridium histolyticum, clostripain (isolated protease), pH 7.6, 5 U clostripain/mg, 25° C.; for metabolised at 22 h: read-out: cleaved after 22 h. As for the experimental part:
as §1, §3, §4, §8, §9

Series [7] in a line: Circular dichroism analysis, variable temperature measurement. Format: physicochemical. As for the experimental part: Secondary structure of ABD variants was analyzed by circular dichroism (CD) spectroscopy using a scan from 195-250 nm before and after the variable temperature measurement (see below). Purified albumin binding polypeptide variants were diluted in 1×PBS, to final concentration of 0.5 mg/ml. Circular dichroism (CD) analysis was performed on a Jasco J-810 spectropolarimeter in a cell with an optical path-length of 1 mm. Alpha helical proteins show typical minima at 208 and 222 nm.
Variable temperature measurement was used to determine the melting temperature, Tm. In these measurements, the absorbance was measured at 221 nm from 20° C. to 90° C., with a temperature slope of 5° C./min.
The melting temperatures of the ABD variants were calculated by determining the midpoint of the transtition in the CD vs. temperature plot.
The CD spectra before and after heat treatment were compared in order to detect potential heat denaturation of the proteins. […] FIGS. 2A and 2B show the CD spectra of the new ABD variants and of PEP07843 (SEQ ID NO:27) for comparison.
(CD spectra are sensitive to the conformation of chiral molecules.)

Where [8] appears, read: pH 7.6, 0.2 U clostripain/mg, 120 min.
The mark [9] stands for this setting: pH 7.6, 5 U clostripain/mg, 2 h.

T1 sequence (P09870 191-526): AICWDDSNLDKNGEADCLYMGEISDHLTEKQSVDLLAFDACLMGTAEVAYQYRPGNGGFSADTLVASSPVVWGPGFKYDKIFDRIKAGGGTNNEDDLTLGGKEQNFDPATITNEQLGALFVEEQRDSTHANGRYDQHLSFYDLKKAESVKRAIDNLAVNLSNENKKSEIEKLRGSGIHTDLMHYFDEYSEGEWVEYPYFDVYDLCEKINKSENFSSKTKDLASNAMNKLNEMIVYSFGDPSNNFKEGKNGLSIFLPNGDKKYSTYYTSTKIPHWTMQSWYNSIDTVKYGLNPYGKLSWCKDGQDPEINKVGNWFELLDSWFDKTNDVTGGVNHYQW
T1 sequence (P09870 51-181): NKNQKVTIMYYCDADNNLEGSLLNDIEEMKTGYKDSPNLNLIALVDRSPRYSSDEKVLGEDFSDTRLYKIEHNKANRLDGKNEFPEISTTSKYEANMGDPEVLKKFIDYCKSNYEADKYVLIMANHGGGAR
T3 sequence (A2V9Z4 25-608): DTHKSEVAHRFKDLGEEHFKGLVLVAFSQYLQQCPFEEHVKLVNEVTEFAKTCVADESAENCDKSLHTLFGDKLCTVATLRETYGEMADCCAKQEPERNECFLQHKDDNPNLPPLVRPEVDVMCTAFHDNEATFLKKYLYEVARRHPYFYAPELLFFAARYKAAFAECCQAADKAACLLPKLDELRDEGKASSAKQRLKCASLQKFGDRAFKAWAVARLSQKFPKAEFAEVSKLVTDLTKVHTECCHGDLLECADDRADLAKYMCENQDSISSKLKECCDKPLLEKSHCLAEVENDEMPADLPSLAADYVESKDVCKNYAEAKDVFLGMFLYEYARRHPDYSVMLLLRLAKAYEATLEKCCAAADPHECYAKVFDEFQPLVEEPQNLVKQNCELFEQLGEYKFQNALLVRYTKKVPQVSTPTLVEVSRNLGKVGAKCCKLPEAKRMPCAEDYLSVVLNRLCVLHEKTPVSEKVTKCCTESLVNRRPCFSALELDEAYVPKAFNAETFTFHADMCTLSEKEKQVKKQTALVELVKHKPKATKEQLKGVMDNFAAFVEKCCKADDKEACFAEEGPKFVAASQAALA
Sequence of human serum albumin (HSA) (P02768 25-609): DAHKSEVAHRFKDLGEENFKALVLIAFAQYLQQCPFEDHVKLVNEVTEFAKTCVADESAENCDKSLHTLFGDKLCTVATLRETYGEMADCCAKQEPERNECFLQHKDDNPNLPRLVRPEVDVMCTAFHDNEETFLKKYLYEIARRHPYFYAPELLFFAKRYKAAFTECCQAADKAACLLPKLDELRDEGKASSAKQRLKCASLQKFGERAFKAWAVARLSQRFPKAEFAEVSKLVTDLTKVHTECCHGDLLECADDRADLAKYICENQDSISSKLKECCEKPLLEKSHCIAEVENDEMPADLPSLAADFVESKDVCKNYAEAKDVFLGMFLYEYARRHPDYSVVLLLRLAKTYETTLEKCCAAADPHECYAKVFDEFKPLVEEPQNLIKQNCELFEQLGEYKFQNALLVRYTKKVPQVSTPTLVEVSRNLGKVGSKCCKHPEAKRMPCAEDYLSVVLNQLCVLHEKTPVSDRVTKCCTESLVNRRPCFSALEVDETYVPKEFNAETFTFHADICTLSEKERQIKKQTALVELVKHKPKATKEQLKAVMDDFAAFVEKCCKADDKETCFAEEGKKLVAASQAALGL

Regarding “GSSLAEAKEAANAELDSYGVSDFYKKLIDKAKTVEGVEALKDAILAALP [PEP12380]”, the “remaining % ABD variant” value in series [1] (0.2 U clostripain/mg, 0 min) was found to be 100%. Besides, the “remaining % ABD variant” value in series [1] (5 U clostripain/mg, 0 h) is on record as 100%. In series [1] (as compared to PEP12379, PEP12381 and PEP07843), the “protease stability, comparison” value is recorded as “superior properties with respect to protease stability”. The “increase of degradation products over time, comparison” value in series [1] (both low and high clostripain concentrations) is on record as “lowest increase of degradation products over time”. In series [2] (pH 7.6, 0.2 U clostripain/mg), the share remaining at 2 min was determined as 100%, the share remaining at 5 min is 101%, the fraction remaining at 0.25 h worked out at 101% and the share remaining at 0.5 h worked out at 101%. In addition, in series [2] (pH 7.6, 0.2 U clostripain/mg), the amount remaining at 20 h is 100%. For the same sequence, in series [2] (setting [8]), the share remaining at 2 h came out at 100%. Also, in series [2] (pH 7.6, 5 U clostripain/mg), the share remaining at 1 h amounted to 96%, the amount remaining at 4 h turned out to be 84%, the share remaining at 6 h was 77% and the amount remaining at 8 h was 69%. The amount remaining at 22 h in series [2] (pH 7.6, 5 U clostripain/mg) was found to be 30%. For the same sequence, the fraction remaining at 2 h in series [2] (setting [9]) was found to be 93%. Binding in series [3] was characterised by a dissociation constant (Kd) of 11 pM. Further, the equilibrium dissociation constant (Kd) (in general, the constant that tells how readily two partners part at equilibrium) in series [4] turned out to be 7.5 pM. The “resistance to clostripain cleavage, comparison” value (“resistance” for short) in series [5] was “highest level of resistance to cleavage”. In series [5] (25° C.), the “incubation time at which some cleavage was seen” value (shortened to “incubation time”) was in the range of 6 to 8 h and the “cleaved after 22 h” value was roughly 50%. Moreover, the metabolised at 22 h in series [6] was roughly 50%. Further, the “thermal stability, comparison of variants” value in series [7] is recorded as “highest thermal stability of the three variants”.
For “GSSLAEAKEAANAELDSYGVSDFYKNLIDKAKTVEGVEALKDAILAALP [PEP12379]”, the “remaining % ABD variant” value in series [1] (0.2 U clostripain/mg, 0 min) came out at 100%. In addition, the “remaining % ABD variant” value in series [1] (5 U clostripain/mg, 0 h) came out at 100%. In series [2] (pH 7.6, 0.2 U clostripain/mg), the share remaining at 2 min was 100%, the fraction remaining at 5 min was found to be 101%, the fraction remaining at 0.25 h is 101% and the amount remaining at 0.5 h is 99%. Also, the share remaining at 20 h in series [2] (pH 7.6, 0.2 U clostripain/mg) is 96%. The amount remaining at 2 h in series [2] (setting [8]) is 99%. Besides, in series [2] (pH 7.6, 5 U clostripain/mg), the share remaining at 1 h stood at 92%, the fraction remaining at 4 h turned out to be 71%, the amount remaining at 6 h came to 58% and the fraction remaining at 8 h came to 47%. The fraction remaining at 22 h in series [2] (pH 7.6, 5 U clostripain/mg) worked out at 4%. Further, the fraction remaining at 2 h in series [2] (setting [9]) was 85%. For the same sequence, the “resistance” value in series [5] was “more resistant to clostripain cleavage as compared to PEP07843”. For the same sequence, in series [5] (25° C.), the “incubation time” value fell in the range of 4 to 8 h and the “cleaved after 22 h” value was roughly 90%. In addition, the metabolised at 22 h in series [6] is roughly 90%.
With “GSSLAEAKEAANAELDSYGVSDFYKRLIDKAKTVEGVEALKDAILAALP [PEP07843, reference compound]”, the “remaining % ABD variant” value in series [1] (0.2 U clostripain/mg, 0 min) is 100%. In addition, in series [1] (0.2 U clostripain/mg, 120 min), the “remaining % ABD variant” value amounted to 94%. The “remaining % ABD variant” value in series [1] (5 U clostripain/mg, 0 h) is recorded as 100%. The “remaining % ABD variant” value in series [1] (5 U clostripain/mg, 2 h) amounted to 15%. For the same sequence, in series [2] (pH 7.6, 0.2 U clostripain/mg), the share remaining at 2 min is 100%, the share remaining at 5 min came out at 101%, the share remaining at 0.25 h is 100% and the fraction remaining at 0.5 h is 100%. Besides, in series [2] (pH 7.6, 0.2 U clostripain/mg), the fraction remaining at 20 h is 54%. Moreover, in series [2] (pH 7.6, 5 U clostripain/mg), the share remaining at 1 h worked out at 46%, the amount remaining at 4 h turned out to be 0%, the fraction remaining at 6 h was 0% and the fraction remaining at 8 h is 0%. Moreover, the fraction remaining at 22 h in series [2] (pH 7.6, 5 U clostripain/mg) is 0%. Moreover, the affinity in series [3], expressed as Kd, was 9.8 pM. Besides, the dissociation constant Kd in series [4] came out at 6.7 pM. In series [5] (25° C., 4-22 h), the “cleaved after 4-22 h” value was found to be 100%. Besides, in series [5] (25° C., 2 h), the “cleaved after 2 h” value is reported as roughly 75%. The metabolised in series [6] (4-22 h, read-out: cleaved after 4-22 h) turned out to be 100%. In addition, the metabolised at 2 h in series [6] (2 h, read-out: cleaved after 2 h) was roughly 75%.
Take “GSSLAEAKEAANAELDSYGVSDFYKSLIDKAKTVEGVEALKDAILAALP [PEP12381]”: the “remaining % ABD variant” value in series [1] (0.2 U clostripain/mg, 0 min) was 100%. For the same sequence, the “remaining % ABD variant” value in series [1] (5 U clostripain/mg, 0 h) amounted to 100%. Further, in series [2] (pH 7.6, 0.2 U clostripain/mg), the fraction remaining at 2 min amounted to 101%, the amount remaining at 5 min was determined as 100%, the amount remaining at 0.25 h was determined as 100% and the share remaining at 0.5 h came out at 100%. The share remaining at 20 h in series [2] (pH 7.6, 0.2 U clostripain/mg) is 97%. Besides, the fraction remaining at 2 h in series [2] (setting [8]) turned out to be 99%. In series [2] (pH 7.6, 5 U clostripain/mg), the share remaining at 1 h is 91%, the amount remaining at 4 h was determined as 60%, the share remaining at 6 h worked out at 44% and the share remaining at 8 h turned out to be 31%. The share remaining at 22 h in series [2] (pH 7.6, 5 U clostripain/mg) is 0%. The fraction remaining at 2 h in series [2] (setting [9]) worked out at 79%. For the same sequence, the “resistance” value in series [5] is “more resistant to clostripain cleavage as compared to PEP07843”. Further, in series [5] (25° C.), the “incubation time” value lay within 4 to 8 h and the “cleaved after 22 h” value was roughly 100%. Besides, in series [6], the metabolised at 22 h was roughly 100%.
